According to patent US20110131669A1:

Experiments:
[1] = biological target: mAb R24 (anti-GD3 monoclonal antibody, IgG3); assay: competitive ELISA: BEC2 pre-incubated with mAb R24 (30 min), remaining R24 binding to plate coated with 0.1 µg GD3 ganglioside
[2] = biological target: mAb R24 (anti-GD3 monoclonal antibody, IgG3); assay: competitive ELISA: peptide pre-incubated with mAb R24 (30 min), remaining R24 binding to plate coated with 0.1 µg GD3 ganglioside
[3] = biological target: mAb R24 (anti-GD3 monoclonal antibody, IgG3); assay: competitive ELISA: peptide pre-incubated with mAb R24, remaining R24 binding to GD3-coated plate

Row | Molecule | IC50 [1] [µg/mL] | concentration giving full inhibition [1] [µg/mL] | IC50 [2] [nM] | concentration giving full inhibition [3] [pmol/mL]
1 | mAb BEC2 (anti-idiotypic monoclonal antibody, IgG2b) | 10 | 60 | – | –
2 | ACTPYAMLPGCK [GD3-like peptide PGD3-5] | – | – | 100 | > 600
3 | GLAPPDYAERFFLIS [GD3-like peptide PGD3-3] | – | – | 300 | > 600
4 | SVAVPPPADDPSWRY [GD3-like peptide PGD3-6] | – | – | 250 | > 600
5 | RHAYRSMAEWGFLYS [GD3-like peptide PGD3-4] | – | – | 150 | > 600
